Measurements taken from the supplement of paper PMC12455559.
± gives the standard deviation of the averaged measurements.

What was measured:
[1] = purified protein yield per well (BCA); higher = higher soluble expression
Procedure, shortened: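 On an OT-2 robot, lysed cells were processed by binding protein to Ni-charged magnetic beads and releasing it with SUMO protease. Expression took place in E. coli C41(DE3), in 2 mL autoinduction cultures with 100 µg/mL kanamycin, for 2 h at 37 °C followed by 40 h at 18 °C. The Pierce Rapid Gold BCA kit was used to quantify purified protein yield in each well, with values under 25 ug (0.1 mg/mL) below the detection threshold.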

[2] = PET hydrolysis, aromatic products released after 48 h (umol product/mg enzyme); higher = more PET depolymerization activity
Procedure, shortened: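 The measure of PET hydrolysis activity is aromatic product released into the supernatant, given per mg enzyme. Nickel-purified, SUMO-cleaved enzyme without tag was added at 5 μg (50 μL) to 3.5 mg amorphous PET film or crystalline PET powder in 450 μL of citrate, phosphate or glycine buffer spanning pH 4.5 to 8.5. After 48 h at 40 or 60 °C in sealed plates without shaking, absorbance at 260 and 280 nm was taken against buffer blanks.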

[3] = melting temperature (DSF); higher = more thermostable
Procedure: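 Candidate PET hydrolases were expressed in E. coli C41(DE3) in 2 mL autoinduction cultures in 24-deep-well plates, Ni-bead purified and released by SUMO protease cleavage on an OT-2 robot. Yield per well was measured by BCA; values below 25 ug (0.1 mg/mL) are below the detection threshold. Melting temperature was measured by differential scanning fluorimetry with Sypro Orange, ramping from 25 C at 0.3 C/step.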

[4] = substrate: aFilm, 40 °C, pH 4.5
[5] = substrate: aFilm, 40 °C, pH 5.5
[6] = substrate: aFilm, 40 °C, pH 6.5
[7] = substrate: aFilm, 40 °C, pH 7.5
[8] = substrate: aFilm, 60 °C, pH 4.5
[9] = substrate: aFilm, 60 °C, pH 5.5
[10] = substrate: aFilm, 60 °C, pH 6.5
[11] = substrate: aFilm, 60 °C, pH 7.5
[12] = substrate: cryPow, 40 °C, pH 4.5
[13] = substrate: cryPow, 40 °C, pH 5.5
[14] = substrate: cryPow, 40 °C, pH 6.5
[15] = substrate: cryPow, 40 °C, pH 7.5
[16] = substrate: cryPow, 60 °C, pH 4.5
[17] = substrate: cryPow, 60 °C, pH 5.5
[18] = substrate: cryPow, 60 °C, pH 6.5
[19] = substrate: cryPow, 60 °C, pH 7.5

| Sequence | purified protein yield per well [1] [µg] | PET hydrolysis [2, 4] | PET hydrolysis [2, 5] | PET hydrolysis [2, 6] | PET hydrolysis [2, 7] | PET hydrolysis [2, 8] | PET hydrolysis [2, 9] | PET hydrolysis [2, 10] | PET hydrolysis [2, 11] | PET hydrolysis [2, 12] | PET hydrolysis [2, 13] | PET hydrolysis [2, 14] | PET hydrolysis [2, 15] | PET hydrolysis [2, 16] | PET hydrolysis [2, 17] | PET hydrolysis [2, 18] | PET hydrolysis [2, 19] | melting temperature [3] [C] |
| --- | --- | --- | --- | --- | --- | --- | --- | --- | --- | --- | --- | --- | --- | --- | --- | --- | --- | --- |
| ADNPYERGPDPTRTSVATERGPFANTSVSVPSGHGFNGGRIYYPTDTSQGTFGAIAISPGYTALFSVELAWMGPWLASHGFVVIGIETNSTNDFDTARGTQLLAALDYLTQQSPVRDRIDPSRLAVSGHSMGGGGALSAAMRRSSLKAVVGITPFSPSSNLASNQVPTMVISGQADTVVTPSYALDLYNSLPASTESVYLEVAGGDHGFMVGRSNPVLIRTMLPFLKMFVDNDTRYSQFLCPLMDNSGVVTYRSTCPLLPTPPTTPPPTGDPTSPPPSTDPTTPPPSGSTGQIVGTQSNRCIDVPNSSRNNGTRVQLYDCHGQANQTWTYNSTTKQLRVYGDMCLDAAGSGNGAAVQIYNCHGQTNQQWNLNSNGTISGVQSNRCLDVWSTNNGAQIQLYDCHGQTNQQFRIRS [ESM173] | 199 | < 3 | < 3 | < 3 | < 3 | < 3 | < 3 | < 3 | < 3 | 3.5 ± 0.71 | 11.5 ± 0.71 | 20.5 ± 0.71 | 11 | < 3 | < 3 | < 3 | < 3 | 61.6 |
| ADNPYERGPDPTRTSVATERGPFANTSVSVPTGYGFNGGRIYYPTDTSQGTFGAIAISPGYTALFSAELAWMGPWLASHGFVVIGIETNSRNDFDTARGTQLLAALDYLTQQSPVRDRVDASRLAVAGHSMGGGGALSAATRRPALKAAVGITPFSPSSNLANDRVPTMVISGQADTVVTPSYALDLYNSLPSTTESVYVEVAGGDHGFMVGRSNPVMIRTMLPFLKIFVDNDARYSQFLCPLMDNSGVVTYRSTCPLINTPTTPPPTSPPPTSPPPTSPPPTTPPPGSATQIVGVQSNRCIDVPNSSRNNGTRVQLYDCHGQTNQAWTYTANKQLQVYGNMCLDAAGTGNGAAVQIYSCHGGANQQWNVNSNGTISGVQSGRCLDVWSTSNGAQVQLYDCHGGTNQRFNLVAR [TEP082] | 282 | < 3 | < 3 | < 3 | < 3 | < 3 | < 3 | < 3 | < 3 | 6.5 ± 0.71 | 15 ± 1.4 | 39.5 ± 2.1 | 34 ± 1.4 | < 3 | 2 ± 2.8 | 6 ± 1.4 | 3.5 ± 0.71 | 63.1 |
| ADNPYERGPNPTESLIEAARGPFATSQTTVSSLSVTGFGGGVIYYPTDTSQGTFGGIAISPGYTAAWSSLDWLGPRLASHGFVVIGIETNTRLDQPASRGDQLLAALDYLTQRSSVRSRVDATRLAVAGHSMGGGGSLEAAKDRTSLKAAIPLAPWNTDKTWPEVRTPTLIIGGESDTVAPVSSHSIPFYTSLTSAREKAYLELDNASHFFPQTSNTTMAKYMISWMKRYIDNDTRYEQFLCPGPSTGLLSGISDWRQTCPGS [TEP073] | 81.6 | – | – | – | – | – | – | – | – | < 3 | < 3 | < 3 | < 3 | < 3 | < 3 | < 3 | < 3 | 46.9 |
| ADNPYERGPNPTQASIAASRGTFATAEVSVGGGNGFAAAKIYYPTDTSQGTFGAIAIVPGYTATWAAEGAWMGPWLASFGFVVIGIDTLSRNDFDTARGTQLLAALDYLTQRSSVRSRVDASRLAVMGHSMGGGGAISAALRRPSLKAAVGLAPFSPSQGTSGMRVPSMLLAGQRDGTVTPSSVRNLYNAIPATTEKAYLELTGAGHGFPTSANSVMMRKVIPWLKIFVDQDTRYQQFLCPLVDWTGITSYQSSCPLIPGGSTGTTYNLVNSSGKCADVNAASQVNGAALLLWTCHTNPNQRWTETSAKELRVYDNPKCMDAGAAQQGTRVTINSCSGGGSQKWTVNANGTVTNDLSGRCLGAAGGATTDNTPLVVASCDGSPGQQWTKQS [TEP093] | 166 | – | – | – | – | – | – | – | – | 4 | 12 | 31 | 28 | < 3 | 4 | 7 | 7 | 69.7 |
